Literature values as cited in article PMC11820823.

What was measured:
[1] = biological target: EphA2 Sam (Homo sapiens) (UniProt P29317)
[2] = biological target: EphA8 Sam (Mus musculus) (UniProt O09127); assay: ITC
[3] = biological target: EphA2 Sam (Mus musculus) (UniProt Q03145)
Chain of EphA2 Sam (Mus musculus) (Q03145 902-972): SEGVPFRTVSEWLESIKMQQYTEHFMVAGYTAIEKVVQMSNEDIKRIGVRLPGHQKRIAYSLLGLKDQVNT

Chain of EphA8 Sam (Mus musculus) (O09127 926-996): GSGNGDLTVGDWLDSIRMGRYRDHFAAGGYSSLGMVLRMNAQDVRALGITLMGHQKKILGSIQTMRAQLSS
Chain of SASH1 SH3-Sam1 (P59808 547-690): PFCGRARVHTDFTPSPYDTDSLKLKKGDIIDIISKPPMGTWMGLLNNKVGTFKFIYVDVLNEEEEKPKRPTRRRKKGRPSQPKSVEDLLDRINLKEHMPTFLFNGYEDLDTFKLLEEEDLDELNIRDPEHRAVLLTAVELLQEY
Chain of EphA2 Sam (Homo sapiens) (P29317 901-971): as the sequence (Q03145 902-972) above, with V27A, S40T, E42D counted along it
Chain of SASH1 Sam1 (P59808 623-693): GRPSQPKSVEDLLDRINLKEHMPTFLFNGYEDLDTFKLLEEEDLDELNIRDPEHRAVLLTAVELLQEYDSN
Chain of Ship2 Sam (O15357 1193-1258): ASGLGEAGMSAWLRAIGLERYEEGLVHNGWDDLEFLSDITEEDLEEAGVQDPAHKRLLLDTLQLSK

| Kd [1] [nM] | Kd [2] [nM] | Kd [3] [nM] | Substance |
| --- | --- | --- | --- |
| 750 |  |  | Ship2 Sam (from UniProt O15357) |
|  | 880 |  | SASH1 Sam1 (from UniProt P59808) |
|  | 1090 | 2520 | SASH1 SH3-Sam1 (from UniProt P59808) |
